Results: PMC10294844, “Functional Diversity of Homologous Oxidoreductases—Tuning of Substrate Specificity by a FAD-Stacking Residue for Iron Acquisition and Flavodoxin Reduction” (Antioxidants, 2023)

Biological target: the molecule itself
Experiment: crystal structure

B1: Bacillus cereus heme-degrading monooxygenase IsdG (enzyme)
chain: MIIVTNTAKITKGNGHKLIERFNKVGKVETMPGFLGLEVLLTQNTVDYDEVTISTRWNAKEDFQGWTKSAAFKDAHSHQGGMPEYILDNKIAYYDVKVVRMPMAAAQ
notes: also called Bc IsdG; IsdGapo
binding result: binds
